B1: WDFY1 (parent)
chain: LLIPKEDGVITASEDRTIRVWLKR

Variants of: B1
Assay: protein stability index of a GFP-peptide fusion (GPS, HEK-293T) (PSI 1-6); higher = more stable
Conditions: c terminus: a fixed tail appended
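Note: lentivirally expressed fusions sorted by FACS into six bins by GFP to DsRed ratio, PSI derived from sequencing read proportions per bin multiplied by bin number.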

Variant	protein stability index
LLIPKEDGVITAYEDRTIRVWLKR [S13Y]	2.08
LLIPKEDGVITAQEDRTIRVWLKR [S13Q]	3.07
LLIPKEDGVITAPEDRTIRVWLKR [S13P]	1.66
LLIPKEDGVITADEDRTIRVWLKR [S13D]	2.53
LLIPKEDGVITAEEDRTIRVWLKR [S13E]	1.5
LLIPKEDGVITATEDRTIRVWLKR [S13T]	2.2
LLIPKEDGVITAAEDRTIRVWLKR [S13A]	1.56
LLIPKEDGVITAKEDRTIRVWLKR [S13K]	2.06
LLIPKEDGVITANEDRTIRVWLKR [S13N]	1.99
LLIPKEDGVITAGEDRTIRVWLKR [S13G]	2.42
LLIPKEDGVITAIEDRTIRVWLKR [S13I]	2.57
LLIPKEDGVITAMEDRTIRVWLKR [S13M]	1.45
LLIPKEDGVITALEDRTIRVWLKR [S13L]	2.15
LLIPKEDGVITACEDRTIRVWLKR [S13C]	1.51
LLIPKEDGVITAVEDRTIRVWLKR [S13V]	2.32
LLIPKEDGVITAHEDRTIRVWLKR [S13H]	1.91
LLIPKYDGVITASEDRTIRVWLKR [E6Y]	2.4
LLIPKSDGVITASEDRTIRVWLKR [E6S]	2.06
LLIPKWDGVITASEDRTIRVWLKR [E6W]	1.66
LLIPKQDGVITASEDRTIRVWLKR [E6Q]	3.73
LLIPKTDGVITASEDRTIRVWLKR [E6T]	1.77
LLIPKVDGVITASEDRTIRVWLKR [E6V]	1.42
LLIPKRDGVITASEDRTIRVWLKR [E6R]	1.63
LLIPKEDGVITASEDCTIRVWLKR [R16C]	1.6

Variant	protein stability index
LLIPKEDGVITASEDETIRVWLKR [R16E]	2.81
LLIPKEDGVITASEDGTIRVWLKR [R16G]	1.89
LLIPKEDGVITASEDKTIRVWLKR [R16K]	1.74
LLIPKEDGVITASEDPTIRVWLKR [R16P]	2.37
LLIPKEDGVITASEDNTIRVWLKR [R16N]	3.22
LLIPKEDGVITASEDDTIRVWLKR [R16D]	2.6
LLIPKEDGVITASEDSTIRVWLKR [R16S]	1.7
LLIPKEDGVITASEDLTIRVWLKR [R16L]	2.22
LLIPKEDGVITASEDTTIRVWLKR [R16T]	1.65
LLIPKEDGVITASEDHTIRVWLKR [R16H]	1.6
LLIPKEDGVITASEDITIRVWLKR [R16I]	1.43
LLIPKEDGVITASEDYTIRVWLKR [R16Y]	1.41
LLIPKEDGVITASEDMTIRVWLKR [R16M]	2.19
LLIPKEDGVITASEDATIRVWLKR [R16A]	1.92
LLIPKEDGVITASEDQTIRVWLKR [R16Q]	2.2
LLIPKEDGVITASEDVTIRVWLKR [R16V]	1.95
LLIPKEDGVIMASEDRTIRVWLKR [T11M]	1.5
LLIPKEDGVIFASEDRTIRVWLKR [T11F]	2.4
LLIPKEDGVIPASEDRTIRVWLKR [T11P]	2.65
LLIPKEDGVIQASEDRTIRVWLKR [T11Q]	1.72
LLIPKEDGVIAASEDRTIRVWLKR [T11A]	2.43
LLIPKEDGVIVASEDRTIRVWLKR [T11V]	2.19
LLIPKEDGVIIASEDRTIRVWLKR [T11I]	2.15
LLIPKEDGVICASEDRTIRVWLKR [T11C]	2.7

Variant	protein stability index
LLIPKEDGVIWASEDRTIRVWLKR [T11W]	1.72
LLIPKEDGVIHASEDRTIRVWLKR [T11H]	2.56
LLIPKEDGVIRASEDRTIRVWLKR [T11R]	3.1
LLIPKEDGVINASEDRTIRVWLKR [T11N]	1.82
LLIPKEDGVIEASEDRTIRVWLKR [T11E]	2.26
LLIPKEDGVIKASEDRTIRVWLKR [T11K]	2.03
LLIPKEDGVIGASEDRTIRVWLKR [T11G]	1.98
LLIPKEDGVISASEDRTIRVWLKR [T11S]	2.42
LLIPKEDGVITASECRTIRVWLKR [D15C]	1.1
LLIPKEDGVITASEERTIRVWLKR [D15E]	1.66
LLIPKEDGVITASEQRTIRVWLKR [D15Q]	2.32
LLIPKEDGVITASEGRTIRVWLKR [D15G]	2.09
LLIPKEDGVITASEKRTIRVWLKR [D15K]	1.41
LLIPKEDGVITASEYRTIRVWLKR [D15Y]	2.97
LLIPKEDGVITASETRTIRVWLKR [D15T]	1.19
LLIPKEDGVITASEPRTIRVWLKR [D15P]	2.17
LLIPKEDGVITASEVRTIRVWLKR [D15V]	1.37
LLIPKEDGVITASEMRTIRVWLKR [D15M]	1.55
LLIPKEDGVITLSEDRTIRVWLKR [A12L]	2.1
LLIPKEDGVITFSEDRTIRVWLKR [A12F]	1.91
LLIPKEDGVITHSEDRTIRVWLKR [A12H]	2.08
LLIPKEDGVITDSEDRTIRVWLKR [A12D]	2.39
LLIPKEDGVITPSEDRTIRVWLKR [A12P]	2.76
LLIPKEDGVITYSEDRTIRVWLKR [A12Y]	2.66

Variant	protein stability index
LLIPKEDGVITSSEDRTIRVWLKR [A12S]	1.71
LLIPKEDGVITQSEDRTIRVWLKR [A12Q]	2.18
LLIPKEDGVITGSEDRTIRVWLKR [A12G]	1.93
LLIPKEDGVITKSEDRTIRVWLKR [A12K]	2.19
LLIPKEDGVITISEDRTIRVWLKR [A12I]	1.92
LLIPKEDGVITCSEDRTIRVWLKR [A12C]	1.77
LLIPKEDGVITNSEDRTIRVWLKR [A12N]	2.56
LLIPKEDGVITASFDRTIRVWLKR [E14F]	2.37
LLIPKEDGVITASGDRTIRVWLKR [E14G]	2.29
LLIPKEDGVITASRDRTIRVWLKR [E14R]	2.78
LLIPKEDGVITASADRTIRVWLKR [E14A]	1.71
LLIPKEDGVITASCDRTIRVWLKR [E14C]	2.41
LLIPKEDGVITASTDRTIRVWLKR [E14T]	1.73
LLIPKEDGVITASKDRTIRVWLKR [E14K]	1.93
LLIPKEDGVITASWDRTIRVWLKR [E14W]	1
LLIPKEDGVITASMDRTIRVWLKR [E14M]	2.62
LLIPKEDGVITASVDRTIRVWLKR [E14V]	1.9
LLIPKEDGVITASYDRTIRVWLKR [E14Y]	1.32
LLIPKEDGVITASQDRTIRVWLKR [E14Q]	2.14
LLIPKEDGVITASIDRTIRVWLKR [E14I]	2.76
LLIPKEDGVITASPDRTIRVWLKR [E14P]	2.62
LLIPKEDGVITASDDRTIRVWLKR [E14D]	3.39

— the supplement of paper PMC10567573
